Assays:
[1] = target: nucleosome with a single double-helical turn linker DNA at both termini, assembled with H2A (NUC167) (human) (UniProt P06899); experiment: BLI; Octet RED96e, 25 °C; biotinylated nucleosome captured on streptavidin biosensors; PARP1 0.195-3.125 nM in PBST pH 7.4 (150 mM NaCl, 0.05% Tween-20); association 120 s, dissociation 15 min; 1:1 model
[2] = target: NUC167 nucleosome assembled with γH2A.X [H2A.X (pS139)] in place of H2A (human) (UniProt P06899); experiment: as above
[3] = target: NUC167 nucleosome assembled with H2A.X in place of H2A (human) (UniProt P06899); experiment: as above
[4] = target: NUC167 nucleosome assembled with H2A.X-S139E (mutant mimic of γH2A.X) in place of H2A (human) (UniProt P06899); experiment: as above
[5] = target: 145 bp nucleosome core particle assembled with H2A (NCP) (human) (UniProt P06899); experiment: SPR; Biacore 3000, room temperature, 10 ul/min; nucleosome/NCP with biotinylated DNA (600-700 RU) immobilised on CM5 chips with neutravidin; PARP1 (1.15-18.5 nM) or NPARP1 (2.32-37 nM) injected consecutively (kinetic titration, 1:1 fit); 20 mM Tris pH 7.5, 150 mM NaCl
[6] = target: nucleosome with a single double-helical turn linker DNA at both termini, assembled with H2A (NUC167) (human) (UniProt P06899); experiment: as above
[7] = target: nucleosome with a single double-helical turn linker DNA at one terminus, assembled with H2A (NUC155) (human) (UniProt P06899); experiment: as above
PARP1 = PARP1 (UniProt P09874); experiment: BLI, nucleosome immobilised, PARP1 titrated; conditions: reference: H2A.X nucleosome; sites S139
[8] = target: NUC167, nucleosome with a single double-helical turn linker DNA at both termini (H2A) (human); experiment: BLI; Octet RED96e, 25 C; biotinylated nucleosome captured on streptavidin biosensors; PARP1 0.195-3.125 nM in PBST pH 7.4; association 120 s, dissociation 15 min; 1:1 model
[9] = target: NUC167 with H2A.X-S139E (mutant mimic of γH2A.X) in place of H2A (human); experiment: as above
[10] = target: NUC167 with γH2A.X [H2A.X (pS139)] in place of H2A (human) (UniProt P16104); experiment: as above
[11] = target: NUC167 with H2A.X in place of H2A (human) (UniProt P16104); experiment: as above
[12] = target: NUC167, nucleosome with a single double-helical turn linker DNA at both termini (H2A) (human); experiment: SPR; Biacore 3000, room temperature, 10 ul/min; nucleosome/NCP with biotinylated DNA (600-700 RU) immobilised on CM5 chips with neutravidin; 20 mM Tris pH 7.5, 150 mM NaCl; PARP1 1.15-18.5 nM or NPARP1 2.32-37 nM injected; kinetic titration, 1:1 fit
[13] = target: 145 bp nucleosome core particle (NCP) with H2A (human); experiment: as above
[14] = target: NUC155, nucleosome with a single double-helical turn linker DNA at one terminus (H2A) (human); experiment: as above

Row | Substance | Kd [5] [nM] | koff [5] [s⁻¹] | kon [5] [M⁻¹ s⁻¹] | koff [6] [s⁻¹] | kon [6] [M⁻¹ s⁻¹] | Kd [7] [nM] | koff [7] [s⁻¹] | kon [7] [M⁻¹ s⁻¹] | koff [12] [s⁻¹] | kon [12] [M⁻¹ s⁻¹] | Kd [13] [nM] | koff [13] [s⁻¹] | kon [13] [M⁻¹ s⁻¹] | Kd [14] [nM] | koff [14] [s⁻¹] | kon [14] [M⁻¹ s⁻¹] | KD (PARP1) | also measured
1 | poly(ADP-ribose) polymerase 1 (PARP1), full-length (from UniProt P09874 1-1014) (enzyme) | 0.701 | 0.000743 | 1.06e+06 | 0.000562 | 2.28e+06 | 0.554 | 0.00107 | 1.93e+06 |  |  |  |  |  |  |  |  |  | koff [1]: 0.000158 s⁻¹; kon [1]: 825000 M⁻¹ s⁻¹; koff [2]: 0.000116 s⁻¹; kon [2]: 2.43e+06 M⁻¹ s⁻¹; koff [3]: 0.000274 s⁻¹; kon [3]: 3.75e+06 M⁻¹ s⁻¹; koff [4]: 0.000328 s⁻¹; kon [4]: 7.5e+06 M⁻¹ s⁻¹
2 | H2A.X (from UniProt P16104) H2A.X-S139E nucleosome |  |  |  |  |  |  |  |  |  |  |  |  |  |  |  |  | stronger; reference 73.2 ± 0.3 | 
3 | PARP1 (poly(ADP-ribose) polymerase 1) (from UniProt P09874 1-1014) (enzyme) |  |  |  |  |  |  |  |  | 0.000562 | 2.28e+06 | 0.701 | 0.000743 | 1.06e+06 | 0.554 | 0.00107 | 1.93e+06 |  | koff [8]: 0.000158 s⁻¹; kon [8]: 825000 M⁻¹ s⁻¹; koff [9]: 0.000328 s⁻¹; kon [9]: 7.5e+06 M⁻¹ s⁻¹; koff [10]: 0.000116 s⁻¹; kon [10]: 2.43e+06 M⁻¹ s⁻¹; koff [11]: 0.000274 s⁻¹; kon [11]: 3.75e+06 M⁻¹ s⁻¹
4 | H2A.X (from UniProt P16104) γH2A.X (pS139) nucleosome |  |  |  |  |  |  |  |  |  |  |  |  |  |  |  |  | stronger; reference 73.2 ± 0.3 | 

More lines, main results first:

Row | Kd [5] [nM] | koff [5] [s⁻¹] | kon [5] [M⁻¹ s⁻¹] | koff [6] [s⁻¹] | kon [6] [M⁻¹ s⁻¹] | Kd [7] [nM] | koff [7] [s⁻¹] | kon [7] [M⁻¹ s⁻¹] | koff [12] [s⁻¹] | kon [12] [M⁻¹ s⁻¹] | Kd [13] [nM] | koff [13] [s⁻¹] | kon [13] [M⁻¹ s⁻¹] | Kd [14] [nM] | koff [14] [s⁻¹] | kon [14] [M⁻¹ s⁻¹] | Substance | KD (PARP1) | also measured
5 | 187 | 0.00424 | 22600 | 0.0244 | 3e+06 | 17.3 | 0.00107 | 61900 |  |  |  |  |  |  |  |  | NPARP1 (N-terminal half of PARP1, amino acids 1-486, lacking the WGR and catalytic domains) (from UniProt P09874 1-486) (domain or fragment) |  | Kd [6]: 8.13 nM
6 |  |  |  |  |  |  |  |  | 0.0244 | 3e+06 | 187 | 0.00424 | 22600 | 17.3 | 0.00107 | 61900 | NPARP1 (N-terminal half of PARP1, amino acids 1-486) (from UniProt P09874 1-486) (domain or fragment) |  | Kd [12]: 8.13 nM

— paper PMC6917767
